Experimental findings from patent US20210324028A1 (Pfizer, published 2021) are described below.

Experiment [1] has as its target T1, human CD122/CD132 on cells of human PBMCs (human, UniProt P14784 27-551; P31785 23-369).
T1 sequence (looked up) 1: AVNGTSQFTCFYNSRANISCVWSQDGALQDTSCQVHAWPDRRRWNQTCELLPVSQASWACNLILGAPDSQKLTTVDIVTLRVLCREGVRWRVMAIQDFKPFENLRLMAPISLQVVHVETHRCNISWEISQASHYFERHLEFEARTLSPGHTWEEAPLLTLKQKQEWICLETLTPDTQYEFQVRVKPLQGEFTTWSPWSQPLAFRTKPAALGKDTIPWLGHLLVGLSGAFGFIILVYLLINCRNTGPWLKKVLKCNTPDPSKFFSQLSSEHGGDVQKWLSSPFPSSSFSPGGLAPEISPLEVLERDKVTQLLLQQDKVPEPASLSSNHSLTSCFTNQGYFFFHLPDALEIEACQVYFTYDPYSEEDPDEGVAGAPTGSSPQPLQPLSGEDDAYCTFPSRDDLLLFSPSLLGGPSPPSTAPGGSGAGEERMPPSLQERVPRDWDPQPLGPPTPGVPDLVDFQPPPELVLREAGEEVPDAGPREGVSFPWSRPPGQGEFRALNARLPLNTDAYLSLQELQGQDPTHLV
T1 sequence (looked up) 2: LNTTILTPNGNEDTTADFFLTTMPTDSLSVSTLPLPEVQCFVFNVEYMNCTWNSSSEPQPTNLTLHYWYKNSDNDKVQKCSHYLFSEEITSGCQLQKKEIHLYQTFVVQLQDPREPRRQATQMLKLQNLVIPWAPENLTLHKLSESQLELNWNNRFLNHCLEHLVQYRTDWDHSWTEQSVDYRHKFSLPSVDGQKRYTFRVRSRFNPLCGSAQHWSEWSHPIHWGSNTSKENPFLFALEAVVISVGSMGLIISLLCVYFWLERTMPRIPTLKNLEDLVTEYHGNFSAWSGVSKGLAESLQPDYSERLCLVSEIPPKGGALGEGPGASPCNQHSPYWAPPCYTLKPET
Briefly: cell-based or functional assay.

Experiment [2] deals with human PD-1 on cells of human PBMCs (human, UniProt Q15116 25-288). Briefly: cell-based or functional assay.
Sequence of human PD-1 on cells of human PBMCs (Q15116 25-288): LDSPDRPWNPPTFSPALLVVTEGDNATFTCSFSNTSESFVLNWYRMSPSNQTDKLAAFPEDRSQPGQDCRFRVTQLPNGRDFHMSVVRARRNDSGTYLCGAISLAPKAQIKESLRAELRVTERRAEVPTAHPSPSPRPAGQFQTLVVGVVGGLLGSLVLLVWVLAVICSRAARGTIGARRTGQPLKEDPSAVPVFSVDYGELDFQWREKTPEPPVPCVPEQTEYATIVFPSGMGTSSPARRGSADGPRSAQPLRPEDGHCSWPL
The target of experiment [3] is T2, mouse PD-1 on doxycycline-induced 32D[pRF770+pRF791] cells (mouse, UniProt Q02242 25-288).
T2 sequence (looked up): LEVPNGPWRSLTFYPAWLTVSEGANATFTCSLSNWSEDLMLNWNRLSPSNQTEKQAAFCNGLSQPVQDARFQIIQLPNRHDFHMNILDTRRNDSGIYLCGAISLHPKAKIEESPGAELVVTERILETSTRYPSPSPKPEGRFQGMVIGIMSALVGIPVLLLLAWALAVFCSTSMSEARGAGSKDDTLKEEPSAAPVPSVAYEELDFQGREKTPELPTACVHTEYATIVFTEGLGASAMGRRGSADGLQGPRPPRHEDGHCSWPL
The experiment is described as follows: cell-based or functional assay.

For experiment [4], the target named is T3, IL-15 signaling receptor on 32D[pRF770+pRF791] cells (human CD122 plus mouse CD132) (human; mouse, UniProt P14784 27-551; P34902 23-369).
T3 sequence (looked up) 1: T1 sequence (looked up) 1
T3 sequence (looked up) 2: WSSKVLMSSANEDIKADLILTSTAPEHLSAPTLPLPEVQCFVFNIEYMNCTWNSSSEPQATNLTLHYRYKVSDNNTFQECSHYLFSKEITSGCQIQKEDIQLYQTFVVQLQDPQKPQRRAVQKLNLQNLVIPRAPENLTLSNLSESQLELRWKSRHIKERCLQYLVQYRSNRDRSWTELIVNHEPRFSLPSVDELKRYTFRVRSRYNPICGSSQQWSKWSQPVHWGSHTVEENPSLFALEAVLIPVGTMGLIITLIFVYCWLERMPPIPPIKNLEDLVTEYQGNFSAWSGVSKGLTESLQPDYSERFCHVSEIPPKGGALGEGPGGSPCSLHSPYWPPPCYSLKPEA
The experiment is described as follows: cell-based or functional assay.

The next experiment addresses T4, human IL-15Rα (human, UniProt Q13261 31-205, limits assumed).
T4 construct: also called hIL-15Rα; IL-15 receptor alpha
The experiment is described as follows: SPR 37C, fusion captured by anti-human Fc. Put shortly:
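Anti-PD-1–hIL-15 fusions captured at 10 μg/mL on an anti-human Fc surface, receptor injected at 37 °C in HEPES-buffered saline with 0.05% Tween-20 and 1 mg/mL BSA, pH 7.4; 5 min dissociation.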

For the next experiment, the target named is T5, human IL-2Rβ (human, UniProt P14784 27-240, limits assumed).
T5 construct: also called hIL-2Rβ; IL-2 receptor beta
T5 sequence (looked up): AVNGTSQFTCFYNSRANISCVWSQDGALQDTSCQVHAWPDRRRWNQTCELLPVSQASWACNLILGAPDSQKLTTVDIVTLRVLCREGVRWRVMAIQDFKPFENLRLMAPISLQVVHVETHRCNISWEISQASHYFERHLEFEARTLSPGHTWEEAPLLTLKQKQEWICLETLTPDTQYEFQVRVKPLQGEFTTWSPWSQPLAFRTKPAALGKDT
The experiment is described as follows: SPR, steady state, fusion captured. How it is done:
Anti-human Fc sensor chips were prepared at 25° C. with a running buffer of 10 mM HEPES, 150 mM NaCl, 0.05% (v/v) Tween-20, pH 7.4. All surfaces of a Biacore CM4 sensor chip were activated with a 1:1 (v/v) mixture of 400 mM EDC and 100 mM NHS for 7 minutes, at a flow rate of 10 μL/min. An anti-human Fc reagent (Goat anti-human IgG Fc-γ specific, SouthernBiotech, Birmingham, Ala., Catalog #2014-01) was diluted to 50 μg/mL in 10 mM sodium acetate (pH 4.5) and injected on all flow cells for 7 minutes at 20 μL/min. All flow cells were blocked with 100 mM ethylenediamine in 200 mM Borate buffer pH 8.5 for 7 minutes at 10 μL/min.
All protein interaction experiments were performed at 37° C. using a running buffer of 10 mM HEPES, 150 mM NaCl, 0.05% (v/v) Tween-20, pH 7.4, 1 mg/mL BSA. Anti-PD-1-hIL-15 fusion proteins were captured at 10 μg/mL at a flow rate of 10 μL/min for 2 minutes. Different fusion proteins were captured in flow cells 2, 3 and 4. No protein was captured onto flow cell 1 which was used as a reference surface. […] After each analyte injection, dissociation was monitored for 5 minutes followed by regeneration of all flow cells with three 60-second injections of 75 mM phosphoric acid. […] For kinetic analysis, the double-referenced sensorgrams were fit globally to a simple 1:1 Langmuir with mass transport binding model using Biacore T200 Evaluation Software version 2.0. For steady-state affinity analysis, the double-referenced equilibrium binding responses were fit with a 1:1 Langmuir steady-state model using Biacore T200 Evaluation Software version 2.0.

T4 sequence (Q13261 31-205 limits assumed): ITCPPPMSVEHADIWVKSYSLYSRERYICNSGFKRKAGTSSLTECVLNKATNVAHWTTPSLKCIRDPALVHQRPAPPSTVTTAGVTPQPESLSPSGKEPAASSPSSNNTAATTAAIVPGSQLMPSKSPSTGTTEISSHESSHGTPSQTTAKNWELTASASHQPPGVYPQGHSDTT

B1: xhPD-1-IL15 m1 (other)
heavy 1: not shown
heavy 2: not shown
light: DIQMTQSPSSLSASVGDRVTITCKSSQSLWDSGNQKNFLTWYQQKPGKAPKLLIYWTSYRESGVPSRFSGSGSGTDFTLTISSLQPEDFATYYCQNDYFYPLTFGGGTKVEIKRTVAAPSVFIFPPSDEQLKSGTASVVCLLNNFYPREAKVQWKVDNALQSGNSQESVTEQDSKDSTYSLSSTLTLSKADYEKHKVYACEVTHQGLSSPVTKSFNRGEC
With B1, the “pSTAT5 EC50 on human NK cells (hPBMC)” value in experiment [1] was determined as 0.475 nM. For the same molecule, in experiment [2], the “Fold change = EC50 (Isotype control--IL15)/EC50 (xhPD1--IL15), CD8+cm T cells” value worked out at 47 fold; the “Fold change = EC50 (Isotype control--IL15)/EC50 (xhPD1--IL15), NK cells” value worked out at 1.99 fold; the “pSTAT5 EC50 on human CD8+cm T cells (hPBMC)” value turned out to be 78 pM.

B2: xhPD-1-IL15 m2 (other)
heavy 1: not shown
heavy 2: not shown
light: B1 light
B2: the “pSTAT5 EC50 on human NK cells (hPBMC)” value in experiment [1] came to 8.27 nM. For the same molecule, in experiment [2], the “Fold change = EC50 (Isotype control--IL15)/EC50 (xhPD1--IL15), CD8+cm T cells” value came out at 76.5 fold; the “Fold change = EC50 (Isotype control--IL15)/EC50 (xhPD1--IL15), NK cells” value stood at 1.36 fold; the “pSTAT5 EC50 on human CD8+cm T cells (hPBMC)” value is 0.492 nM.

B3: xmPD-1-IL15 m1 (other)
heavy 1: EVQLVESGGGLVKPGGSLELSCAASGFTFSSYWMSWVRQAPEKGLEWVAAISPSGGSTYYADSVKGRFTISRDNAKNTLFLQMTSLRSEDTAMYYCAKESWGAYYDLWGQGTTVTVSSASTKGPSVFPLAPSSKSTSGGTAALGCLVKDYFPEPVTVSWNSGALTSGVHTFPAVLQSSGLYSLSSVVTVPSSSLGTQTYICNVNHKPSNTKVDKKVEPKSCDKTHTCPPCPAPEAAGAPSVFLFPPKPKDTLMISRTPEVTCVVVDVSHEDPEVKFNWYVDGVEVHNAKTKPREEQYNSTYRVVSVLTVLHQDWLNGKEYKCKVSNKALPAPIEKTISKAKGQPREPQVYTLPPCREEMTKNQVSLSCAVKGFYPSDIAVEWESNGQPENNYKTTPPVLDSDGSFFLVSKLTVDKSRWQQGNVFSCSVMHEALHNHYTQKSLSLSPGSGGGGSGGGGSGGGGAWVNVISDLKKIEDLIQSMHIDATLYTESNVHPSCKVTAMKCFLLGLQRISLESGDASIHDTVENLIILANNSLSSNGNVTESGCKECEELEEKNIKEFLQSFVHIVQMFINTS
heavy 2: EVQLVESGGGLVKPGGSLELSCAASGFTFSSYWMSWVRQAPEKGLEWVAAISPSGGSTYYADSVKGRFTISRDNAKNTLFLQMTSLRSEDTAMYYCAKESWGAYYDLWGQGTTVTVSSASTKGPSVFPLAPSSKSTSGGTAALGCLVKDYFPEPVTVSWNSGALTSGVHTFPAVLQSSGLYSLSSVVTVPSSSLGTQTYICNVNHKPSNTKVDKKVEPKSCDKTHTCPPCPAPEAAGAPSVFLFPPKPKDTLMISRTPEVTCVVVDVSHEDPEVKFNWYVDGVEVHNAKTKPREEQYNSTYRVVSVLTVLHQDWLNGKEYKCKVSNKALPAPIEKTISKAKGQPREPQVCTLPPSREEMTKNQVSLWCLVKGFYPSDIAVEWESNGQPENNYKTTPPVLDSDGSFFLYSKLTVDKSRWQQGNVFSCSVMHEALHNHYTQKSLSLSPGK
light: DIVMTQSPSSLSVSAGDKVTMSCRASQGISSWLAWYQQKPWQPPKLLIYKASTLESGVPDRFTGSGSGTDFTLTISSVQAEDLAVYYCQQSYSTPWTFGGGTKLEIKGTVAAPSVFIFPPSDEQLKSGTASVVCLLNNFYPREAKVQWKVDNALQSGNSQESVTEQDSKDSTYSLSSTLTLSKADYEKHKVYACEVTHQGLSSPVTKSFNRGEC
notes: also called xmPD-1-hIL15 V49R/E46G/N1A/D30N
Turning to B3, in experiment [3], the “Fold change = EC50 (PD-1(low))/EC50 (PD-1+)” value is 1450 fold and the “pSTAT5 EC50 on PD-1+ 32D reporter cells” value was determined as 53.1 pM. Moreover, the “pSTAT5 EC50 on PD-1(low) 32D reporter cells” value in experiment [4] was 76.9 nM. For the same molecule, the binding result with human IL-15Rα is “no binding (tested: 3000 nM)”. This molecule also returned a Kd with human IL-2Rβ of 433 nM.

As a reminder, the Kd is the constant that tells how readily two partners part at equilibrium.
